From US11584938B2, “Plant EPSPS mutant containing L195P and S247G mutations and encoding gene and use thereof” (GEVOTO LLC, priority 2017, dated 2023)
Values joined by “and” are separate entries in the source; they are usually repeats but may differ in a detail not shown here. Identical values can stand only once.

System: transgenic rice plants
Assay: glyphosate resistance of the EPSPS mutant in transgenic rice plants sprayed with Roundup 41% ammonium glyphosate
Format: in vivo, rice (Nipponbare)
Method in brief: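 EPSPS mutant genes were cloned into pGVP1 and introduced into Nipponbare rice embryo-derived calluses via Agrobacterium EHA105 (OD 0.2, 10 min infection, 2–3 days co-culture at 25 °C in the dark). Calluses went through recovery, two 14-day screening rounds at 30 °C, two differentiation rounds and rooting to regenerate transgenic plants.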

[1] = 1× dosage 1060 g/hectare glyphosate sprayed, recorded on 10th day
[2] = 2× dosage 2120 g/hectare sprayed to plants surviving 1×, recorded 10 days later
[3] = 5× dosage 5300 g/hectare sprayed to plants surviving 2×, recorded 10 days later
[4] = 20× dosage 21200 g/hectare sprayed to plants surviving 5×, recorded 10 days later

B1: R6: rice EPSPS mutant, SEQ ID NO: 40, mutations S267(247)G, L214(195)P and P116(101)S (protein)
chain: MASNAAAAAAKAEEIVLQPIREISGAVQLPGSKSLSNRILLLSALSEGTTVVDNLLNSEDVHYMLEALKALGLSVEADKVAKRAVVVGCGGKFPVEKDAKEEVQLFLGNAGTAMRSLTAAVTAAGGNATYVLDGVPRMRERPIGDLVVGLKQLGADVDCFLGTECPPVRVKGIGGLPGGKVKLSGSISSQYLSALLMAAPLALGDVEIEIIDKPISIPYVEMTLRLMERFGVKAEHSDSWDRFYIKGGQKYKSPGNAYVEGDASSAGYFLAGAAITGGTVTVQGCGTTSLQGDVKFAEVLEMMGAKVTWTDTSVTVTGPPREPYGKKHLKAVDVNMNKMPDVAMTLAVVALFADGPTAIRDVASWRVKETERMVAIRTELTKLGASVEEGPDYCIITPPEKLNITAIDTYDDHRMAMAFSLAACADVPVTIRDPGCTRKTFPNYFDVLSTFVRN
- %++&+++ (percentage of plant having medium and high glyphosate resistance to the total number of plants observed) [1]: 70.0%
- number of plants denoted by + (low glyphosate resistance) [1]: 7
- number of plants denoted by ++ (medium glyphosate resistance) [1]: 3
- number of plants denoted by +++ (high glyphosate resistance) [1]: 18
- number of plants denoted by − (no glyphosate resistance) [1]: 2
- glyphosate resistance / survival of the rice transformed by the EPSPS, in words (1× glyphosate dosage): had relatively high resistance to glyphosate
- number of plants denoted by + (low glyphosate resistance) [2]: 3
- number of plants denoted by ++ (medium glyphosate resistance) [2]: 1
- number of plants denoted by +++ (high glyphosate resistance) [2]: 18
- number of plants denoted by − (no glyphosate resistance) [2]: 8
- glyphosate resistance / survival of the rice transformed by the EPSPS, in words (2× glyphosate dosage): had relatively high resistance to glyphosate
- &++&+++ (percentage of plant having medium and high glyphosate resistance to the total number of plants observed) [3]: 63.3%
- number of plants denoted by + (low glyphosate resistance) [3]: 0
- number of plants denoted by ++ (medium glyphosate resistance) [3]: 6
- number of plants denoted by +++ (high glyphosate resistance) [3]: 13
- number of plants denoted by − (no glyphosate resistance) [3]: 11
- &++&+++ (percentage of plant having medium and high glyphosate resistance to the total number of plants observed) [4]: 63.38% and 63.3%
- number of plants denoted by + (low glyphosate resistance) [4]: 0
- number of plants denoted by ++ (medium glyphosate resistance) [4]: 11
- number of plants denoted by +++ (high glyphosate resistance) [4]: 8
- number of plants denoted by − (no glyphosate resistance) [4]: 11
